Data published in patent US20190127480A1 (Regeneron, published 2019).

What was measured:
[1] = target: T1, human CD3 expressed on cells (Jurkat cells, a CD3+ human T-cell line; human PBMC T cells) (human, UniProt P07766 23-207; P04234 22-171); assay: cell-based or functional assay
[2] = target: T1, human CD3 expressed on cells (Jurkat …); assay: FACS on Jurkat cells
Method: FACS data was acquired using the following protocol: Cells at 2×10⁵ per well were incubated with serially diluted antibodies for 30 min on ice. Post incubation, cells were washed and secondary antibody was added and incubated for an additional 30 minutes. After incubation, cells were washed, re-suspended in cold PBS containing 1% BSA and analyzed by flow cytometry with viable Jurkat cells gated by side and forward scatters. The EC₅₀s for cell binding titration were determined using Prism software with values calculated using a 4-parameter non-linear regression analysis.

[3] = target: T2, Soluble heterodimeric CD3 protein (hCD3-epsilon/hCD3-delta) with either a human Fc tag (hFcΔAdp/hFc) or a … (human, UniProt P07766 23-126; P04234 22-105); assay: SPR Biacore 25C antigen-capture
T2 construct: also called hCD3ε/δ; not shown: Fc tag: human (hFcΔAdp/hFc)
T2 sequence (P07766 23-126 limits assumed, stated change not applied, chain 1 of 2): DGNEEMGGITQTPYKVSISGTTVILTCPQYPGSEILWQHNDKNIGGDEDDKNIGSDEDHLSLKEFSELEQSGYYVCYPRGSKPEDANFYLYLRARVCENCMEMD
T2 sequence (P04234 22-105 limits assumed, stated change not applied, chain 2 of 2): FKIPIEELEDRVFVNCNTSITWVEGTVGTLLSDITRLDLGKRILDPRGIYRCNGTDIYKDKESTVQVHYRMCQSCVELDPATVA
Method in brief: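 Rate constants fitted to a 1:1 model, giving KD as kd/ka and dissociative half-life as ln2/(60·kd) minutes. Antibodies flowed over CD3ε/δ heterodimer captured on anti-human or anti-mouse Fc surfaces, run on a Biacore T200 at 25 °C.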

[4] = target: human CD3 expressed on cells (Jurkat cells; human T-cells of PBMC) (human, UniProt P09693 23-182; P20963 22-164); assay: cell-based or functional assay
human CD3 expressed on cells (Jurkat cells; human T-cells of PBMC), sequence (chain, as listed by the source, chain 1 of 4): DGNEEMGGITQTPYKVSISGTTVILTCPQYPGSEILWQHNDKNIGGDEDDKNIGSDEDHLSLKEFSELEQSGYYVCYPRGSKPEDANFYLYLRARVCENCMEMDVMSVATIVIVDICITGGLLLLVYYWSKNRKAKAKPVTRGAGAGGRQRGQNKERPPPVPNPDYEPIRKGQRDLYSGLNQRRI
human CD3 expressed on cells (Jurkat cells; human T-cells of PBMC), sequence (chain, as listed by the source, chain 2 of 4): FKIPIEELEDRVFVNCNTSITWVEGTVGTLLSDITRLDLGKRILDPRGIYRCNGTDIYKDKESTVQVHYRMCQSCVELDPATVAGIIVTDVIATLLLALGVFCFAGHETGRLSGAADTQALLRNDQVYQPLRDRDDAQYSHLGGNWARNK
human CD3 expressed on cells (Jurkat cells; human T-cells of PBMC), sequence (P09693 23-182, chain 3 of 4): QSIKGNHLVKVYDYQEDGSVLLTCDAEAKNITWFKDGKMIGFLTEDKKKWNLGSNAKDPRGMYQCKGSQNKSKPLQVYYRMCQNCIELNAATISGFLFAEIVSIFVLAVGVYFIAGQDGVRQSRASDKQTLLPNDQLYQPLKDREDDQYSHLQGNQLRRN
human CD3 expressed on cells (Jurkat cells; human T-cells of PBMC), sequence (P20963 22-164, chain 4 of 4): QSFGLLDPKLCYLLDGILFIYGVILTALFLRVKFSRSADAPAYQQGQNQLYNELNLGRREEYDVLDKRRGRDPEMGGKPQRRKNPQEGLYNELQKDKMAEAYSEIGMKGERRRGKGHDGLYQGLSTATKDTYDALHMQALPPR

T1 sequence (P07766 23-207 limits assumed, chain 1 of 2): as the sequence (chain, as listed by the source, chain 1 of 4) above
T1 sequence (P04234 22-171 limits assumed, chain 2 of 2): as the sequence (chain, as listed by the source, chain 2 of 4) above

| Binder | EC50 [M] hPBMC Proliferation [1] | EC50 [2] | Kd [3] | T½ [3] | koff [3] | kon [3] | EC50 [M] hPBMC Proliferation [4] |
| --- | --- | --- | --- | --- | --- | --- | --- |
| H2M2690N (antibody, mouse IgG2, V domains shown, H2M: mouse IgG2 Fc, human variable regions; divalent) VH: EVQLVESGGGLVQPGRSLRLSCAASGFTFDDYTMHWVRQAPGKGLEWVSGISWNSGSIGYADSVKGRFTISRDNAKKSLYLQMNSLRAEDTALYYCAKDNSGYGHYYYGMDVWGQGTTVTVAS VL: EIVMTQSPATLSVSPGERATLSCRASQSVSSNLAWYQQKPGQAPRLLIYGASTRATGIPARFSGSGSGTEFTLTISSLQSEDFAVYYCQHYINWPLTFGGGTKVEIK | 5.37e-12 M | 4370 pM | 79.9 pM | 1820 min | 6.35e-06 s⁻¹ | 75100 M⁻¹ s⁻¹ |  |
| H2M2707N (antibody, mouse IgG2, V domains shown, H2M: mouse IgG2 Fc, human variable regions; divalent) VH: QVQLVESGGGVVQPGRSLRLSCIASGFTFRSYGMHWVRQAPGKGLEWVAMIYYDGNNKYYADSVRGRFTISRDNSKNTLYLQMNSLRADDTAVYFCARGPGYNWLDPWGQGTLVTVSS VL: EIVMTQSPATLSVSPGERATLSCRASQSVSSNLAWYQQKPGQAPRLLIYGASTRATGIPARFSGSGSGTEFTLTISSLQSEDFAVYYCQQYNNRPLTFGGGTKVEIK | 1.92e-12 M | 124000 pM | 715 pM | 41 min | 0.000285 s⁻¹ | 399000 M⁻¹ s⁻¹ |  |
| H2M2691N (antibody, mouse IgG2, V domains shown, H2M: mouse IgG2 Fc, human variable regions; divalent) VH: EVQLVESGGGLVQPGRSLRLSCAASGFTFDDYTMHWVRQAPGKGLEWVSGISWNSGSIGYADSVKGRFTISRDNAKKSLYLQMNSLRAEDTALYYCAKDNSGYGHYYYGMDVWGQGTTVTVAS VL: EIVMTQSPATLSVSPGERATLSCRASQSVSSNLAWYQQKPGQAPRLLIYGASTRATGIPARFSGSGSGTEFTLTISSLQSEDFAVYYCQHYINWPLTFGGGTKVEIK | 3.43e-11 M | 6770 pM | 254 pM | 1160 min | 9.98e-06 s⁻¹ | 39400 M⁻¹ s⁻¹ |  |
| H1M2692N (antibody, mouse IgG1, V domains shown, H1M: mouse IgG1 Fc, human variable regions; divalent) VH: EVQLVESGGGLVQPGGSLRLSCAASGFSFDDYTMHWVRQPPGKGLEWVSGISWNSGSIGYADSVKGRFTISRDNAKNSLYLQMNSLRAGDTALYYCAKDNSGYGYYYYYGMDVWGQGTTVTVSS VL: EIVMTQSPATLSVSPGERATLSCRASQSVSSNLAWYQQKPGQAPRLLIYGASTRATGIPARFSGSGSGTEFTLTISSLQSEDFAVYYCQQYYNWPLTFGGGTKVEIK | 1.42e-10 M | 5990 pM | 238 pM | 1170 min | 9.9e-06 s⁻¹ | 41900 M⁻¹ s⁻¹ |  |
| H2M2708N (antibody, mouse IgG2, V domains shown, H2M: mouse IgG2 Fc, human variable regions; divalent) VH: QVQLVESGGGVVQPGRSLRLSCAASGFTFRSFGMHWVRQAPGRGLEWVAMIYFDGKNKYYADSVRGRFTISRDNSKNTLYLEMSSLRAEDTAVYFCARGPGYNWLDPWGQGTLVTVSS VL: EIVMTQSPATLSVSPGERVTLSCRASQSISRNLAWYQQKPGQAPRLLIYGASTRATGVPARFSGSGSGTEFTLTISSLQSEDFAVFHCQQYNNRPLTFGGGTEVEIK | 2.69e-08 M | 658 pM | 131 pM | 51 min | 0.000227 s⁻¹ | 1.73e+06 M⁻¹ s⁻¹ |  |
| H2M2706N (antibody, mouse IgG2, V domains shown, H2M: mouse IgG2 Fc, human variable regions; divalent) VH: QVQLVESGGGVVQPGRSLRLSCAASGFTFRSYAMHWVRQAPGKGLEWVAMVYYDGNNQYYADSVRGRFTISRDNSKNTLYLQMNSLRADDTAVYFCARGPGYNWLDPWGQGTLVTVSS VL: EIVMTQSPATLSVSPGERATLSCRASQSVSRNLAWYQQKPGQAPRLLIYGASTRATGIPARFSGSGSGTDFTLTISSLQSEDFAVYYCQQYNNWPLTFGGGTKVVIK | 3.86e-12 M | 2370 pM | 544 pM | 38 min | 0.000306 s⁻¹ | 563000 M⁻¹ s⁻¹ |  |
| H2M2710N (antibody, V domains shown, H2M: mouse IgG2 Fc, human variable regions; divalent) VH: QVQLVESGGGVVQPGRSLRLSCAASGFTFRSFGMHWVRQAPGRGLEWVAMIYFDGKNKYYADSVRGRFTISRDNSKNTLYLEMSSLRAEDTAVYFCARGPGYNWLDPWGQGTLVTVSS VL: EIVMTQSPATLSVSPGERATLSCRASQSVSRNLAWYQQKPGQAPRLLIYGASTRATGVPARFSGSGSGTEFTLTISSLQSEDFAVFHCQQYNNRPLTFGGGTEVEIK | 2.11e-10 M | 710 pM | 153 pM | 48 min | 0.000243 s⁻¹ | 1.59e+06 M⁻¹ s⁻¹ |  |
| H2M2774N (antibody, mouse IgG2, V domains shown, H2M: mouse IgG2 Fc, human variable regions; divalent) VH: QVQLVESGGGVVQPGRSLRLSCVASGFTFRSYGMHWVRQAPGKGLQWVAMIYYDGKNKYYADSVRGRFTISRDNSKNTLYLQMNSLRAEDTAMYFCARGPGYNWLDPWGQGTLVTVSS VL: EIVMTQSPATLSVSPGERATLSCRASQRISSNLAWYQQKPGQAPRLLIYGASTRATGSPARFSGSGSGTEFTLTISSLQSEDVAVYYCQQHNNWPLTFGGGTKVEIK | 4.92e-10 M | 352 pM | 135 pM | 34 min | 0.000336 s⁻¹ | 2.49e+06 M⁻¹ s⁻¹ |  |
| H2M2711N (antibody, V domains shown, H2M: mouse IgG2 Fc, human variable regions; divalent) VH: QVQLVESGGGVVQPGRSLRLSCAASGFTFRSFGMHWVRQAPGRGLEWVAMIYFDGKNKYYADSVRGRFTISRDNSKNTLYLEMSSLRAEDTAVYFCARGPGYNWLDPWGQGTLVTVSS VL: EIVMTQSPATLSVSPGERATLSCRASQSVSRNLAWYQQKPGQAPRLLIYGASTRATGVPARFSGSGSGTEFTLTISSLQSEDFAVFHCQQYNNRPLTFGGGTEVEIK | 6.48e-10 M | 1160 pM | 151 pM | 48 min | 0.00024 s⁻¹ | 1.59e+06 M⁻¹ s⁻¹ |  |
| H1H5799P (antibody, human IgG1, V domains shown) VH: QVQLVQSGAEVKKPGASVKVSCKASGYTFIGYYMHWVRQAPGQGLEWMGWINPKSGGTNYAQKFQGRVTMTGDTSISTAYMELSRLRSDDTAVFYCARMGDGAMFDYWGQGTLVTVSS VL: DIQMTQSPSSLSASVGDRVTITCRASQRISSYLNWYQQKAGKAPKVLIYTASSLQSGVPSRFSGSGSGTDFTLTISSLQPEDFATYYCQQSYSTPLTFGGGTKVEIK |  |  |  |  |  |  | 1.63e-13 M |

Further lines, results first:

| EC50 [M] hPBMC Proliferation [1] | EC50 [2] | Kd [3] | T½ [3] | koff [3] | kon [3] | EC50 [M] hPBMC Proliferation [4] | Binder |
| --- | --- | --- | --- | --- | --- | --- | --- |
| 1.89e-12 M | 1100 pM |  |  |  |  |  | H2M3548N (antibody, mouse IgG2, V domains shown, H2M: mouse IgG2 Fc, human variable regions; divalent) VH: EVQLVESGGGLVQPGRSLRLSCAASGFKFADYAMHWVRQAPGKGLEWVSEISWNSGSIGYVDSVKGRFTISRDNAKNSLYLQMNSLRAEDTALYYCVKDKSGYGHYYIGMDVWGQGTTVIVSS VL: not shown |
| 2.85e-08 M |  |  |  |  |  |  | H2M2789N (antibody, mouse IgG2, V domains shown) VH: QVTLKESGPALVKPTQTLTLTCTFSGFSLSTSGMCVSWIRQPPGKALEWLARIDWDDDKYYSTSLKTRLTISKDTSKNQVVLTMTNMDPVDTATYYCARMDIVGARGGWFDPWGQGTLVTVSS VL: DIQMTQSPSSLSASVGDRVTITCRASQGISNYLAWFQQKPGKAPKSLIYAASSLQSGVPSKFSGSGSGTDFTLTISSLQPEDFATYYCQQYNSYPLTFGGGTKVEIK |
|  | 3620 pM | 46.8 pM | 1760 min | 6.57e-06 s⁻¹ | 150000 M⁻¹ s⁻¹ |  | H2M2778N (antibody, mouse IgG2, V domains shown, H2M: mouse IgG2 Fc, human variable regions; divalent) VH: EVQLVESGGGLVQPGRSLRLSCAASGFTFDDYSMHWVRQAPGKGLEWVSGISWNSRSIDYADSVKGRFTISRDNAKNSLYLQMNSLRAEDTALYYCVKDNSGYGRYYYYGMDVWGQGTTVSVSS VL: KIVMTQSPATLSVSPGERATLSCRASQSVSGNLAWYQQKPGQAPRLLIYGASTRATSIPARFSGSGSGTEFTLTISSLQSEDFAVYFCQHYYNWPLTFGGGTKVEIR |
| 1.09e-09 M | 1320 pM | 138 pM | 53 min | 0.000216 s⁻¹ | 1.56e+06 M⁻¹ s⁻¹ |  | H2M2775N (antibody, mouse IgG2, V domains shown, H2M: mouse IgG2 Fc, human variable regions; divalent) VH: QVQLVESGGGVVQPGRSLRLSCAASGFTFRSFGMHWVRQAPGRGLEWVAMIYFDGKNKYYADSVRGRFTISRDNSKNTLYLEMSSLRAEDTAVYFCARGPGYNWLDPWGQGTLVTVSS VL: EIVMTQSPATLSVSPGERVILSCRASQSISRNLAWYQQKPGQAPRLLIYGATTRATGVPARFSGSGSGTEFTLTISSLQSEDFAVFYCQQYNNRPLTFGGGTEVEIK |
| 2.49e-12 M | 2090 pM | 111 pM | 76 min | 0.000152 s⁻¹ | 1.37e+06 M⁻¹ s⁻¹ |  | H2M2885N (antibody, mouse IgG2, V domains shown, H2M: mouse IgG2 Fc, human variable regions; divalent) VH: QVQLVESGGGVVQPGRSLRLSCAASGFTFRSFGMHWVRQAPGRGLEWVAMIYFDGKNKYYADSVRGRFTISRDNSKNTLYLEMSSLRAEDTAVYFCARGPGYNWLDPWGQGTLVTVSS VL: EIVMTQSPATLSVSPGERVILSCRASQSISRNLAWYQQKPGQAPRLLIYGATTRATGVPARFSGSGSGTEFTLTISSLQSEDFAVFYCQQYNNRPLTFGGGTEVEIK |
| 2.69e-12 M | 3970 pM | 95.6 pM | 85 min | 0.000136 s⁻¹ | 1.42e+06 M⁻¹ s⁻¹ |  | H2M2886N (antibody, mouse IgG2, V domains shown, H2M: mouse IgG2 Fc, human variable regions; divalent) VH: QVQLVESGGGVVQPGRSLRLSCAASGFTFRSFGMHWVRQAPGRGLEWVAMIYFDGKNKYYADSVRGRFTISRDNSKNTLYLEMSSLRAEDTAVYFCARGPGYNWLDPWGQGTLVTVSS VL: EIVMTQSPATLSVSPGERVILSCRASQSISRNLAWYQQKPGQAPRLLIYGATTRATGVPARFSGSGSGTEFTLTISSLQSEDFAVFYCQQYNNRPLTFGGGTEVEIK |
